In the FLAb antibody collection:
Several values for one entry are separate records, joined by “and”; a condition that tells them apart may be missing. Equal values may be shown once.

assay: patients with anti-drug antibodies; higher = more immunogenic

Protein	patients with anti-drug antibodies
unnamed (protein) chain 1: QVQLQQSGPELKKPGASVKVSCKDSGYAFSSSWMNWVRQAPGQGLEWIGRIYPGDGDTNYNGKFQGRVTITADKSSSTAYMELSSLRSEDTAVYFCARSGLLRYAMDYWGQGTLVTVSS chain 2: DIQMTQSPSSLSASVGDRVTITCRASQDIRNYLNWYQQKPGKAVKLLIYYTSRLLPGVPSRFSGSGSGTDYSLTISSQEQEDIGTYFCQQGNTLPWTFGQGTKVEIR	2.5%
unnamed (protein) chain 1: QVQLVQSGAEVKKPGASVKVSCKASGYTFTSHWMHWVRQAPGQGLEWIGEFNPSNGRTNYNEKFKSKATMTVDTSTNTAYMELSSLRSEDTAVYYCASRDYDYDGRYFDYWGQGTLVTVSS chain 2: DIQMTQSPSSLSASVGDRVTITCSASSSVTYMYWYQQKPGKAPKLLIYDTSNLASGVPSRFSGSGSGTDYTFTISSLQPEDIATYYCQQWSSHIFTFGQGTKVEIK	10%
unnamed (protein) chain 1: QVQLVQSGAEVKKPGASVKISCKASGYSFTAYYIHWVKQAPGQGLEWIGYISNYNRATNYNQKFKGRVTFTTDTSTSTAYMELRSLRSDDTAVYYCARDYDYDVGMDYWGQGTLVTVSS chain 2: DIVMTQSPDSLAVSLGERATISCRASESVDNYGISFMKWFQQKPGQPPKLLIYAASNQGSGVPDRFSGSGSGTDFTLTISSLQAEDVAVYYCQQSKEVPWTFGGGTKVEIK	29%
unnamed (protein) chain 1: QVQLQESGPGLVKPSETLSLTCTVSGFSLLSYGVHWVRQPPGKGLEWLGVIWTGGTTNYNSALMSRFTISKDDSKNTVYLKMNSLKTEDTAIYYCARYYYGMDYWGQGTLVTVSS chain 2: DIQMTQSPSSLSASVGDRVTITCKASQDVRNTVAWYQQKPGKAPKLLIYSSSYRNTGVPDRFSGSGSGTDFTLTISSLQAEDVAVYYCQQHYITPYTFGGGTKVEIK	21.2%
unnamed (protein) chain 1: QVTLRESGPALVKPTQTLTLTCTFSGFSLSTAGMSVGWIRQPPGKALEWLADIWWDDKKHYNPSLKDRLTISKDTSKNQVVLKVTNMDPADTATYYCARDMIFNFYFDVWGQGTTVTVSS chain 2: DIQMTQSPSTLSASVGDRVTITCSASSRVGYMHWYQQKPGKAPKLLIYDTSKLASGVPSRFSGSGSGTEFTLTISSLQPDDFATYYCFQGSGYPFTFGGGTKVEIK	1.5%
unnamed (protein) chain 1: EVQLVESGGDLVQPGRSLRLSCAASGFIFSNYGMSWVRQAPGKGLEWVATISSASTYSYYPDSVKGRFTISRDNAKNSLYLQMNSLRVEDTALYYCGRHSDGNFAFGYWGQGTLVTVSS chain 2: DVLMTQSPLSLPVTPGEPASISCRSSRNIVHINGDTYLEWYLQKPGQSPQLLIYKVSNRFSGVPDRFSGSGSGTDFTLKISRVEAEDVGVYYCFQGSLLPWTFGQGTKVEIK	4.2%
unnamed (protein) chain 1: QVQLVQSGAEVKKPGSSVMVSCQASGGLLEDYIINWVRQAPGQGPEWMGGIIPVLGTVHYGPKFQGRVTITADESTDTAYMELSSLRSEDTAMYYCATETALVVSETYLPHYFDNWGQGTLVTVSS chain 2: DIQMTQSPSSLSAAVGDRVTITCQASQDIVNYLNWYQQKPGKAPKLLIYVASNLETGVPSRFSGSGSGTDFSLTISSLQPEDVATYYCQQYDNLPLTFGGGTKVEIK	28%
unnamed (protein) chain 1: EVQLQQSGPDLVKPGASVKISCKASGYSFTGYYMHWVKQSPGKGLEWIGRINPNNGVTLYNQKFKDKATLTVDKSSTTAYMELRSLTSEDSAVYYCARSTMITNYVMDYWGQGTSVTVSS chain 2: SIVMTQTPTSLLVSAGDRVTITCKASQSVSNDVAWYQQKPGQSPKLLISYTSSRYAGVPDRFSGSGYGTDFTLTISSVQAEDAAVYFCQQDYNSPPTFGGGTKLEIK	72.5%
unnamed (protein) chain 1: EVQLVESGGGLVKPGGSLKLSCAASGYTFTSYVMHWVRQAPGKGLEWIGYINPYNDGTKYNEKFQGRVTISSDKSISTAYMELSSLRSEDTAMYYCARGTYYYGTRVFDYWGQGTLVTVSS chain 2: DIVMTQSPATLSLSPGERATLSCRSSKSLQNVNGNTYLYWFQQKPGQSPQLLIYRMSNLNSGVPDRFSGSGSGTEFTLTISSLEPEDFAVYYCMQHLEYPITFGAGTKLEIK	17.5% and 1%
unnamed (protein) chain 1: QVQLVQSGAEVKKPGASVKVSCKAFGYPFTDYLLHWVRQAPGQGLEWVGWLNPYSGDTNYAQKFQGRVTMTRDTSISTAYMELSRLRSDDTAVYYCTRTTLISVYFDYWGQGTMVTVSS chain 2: DIQMTQSPSSVSASVGDRVTIACRASQNIRNILNWYQQRPGKAPQLLIYAASNLQSGVPSRFSGSGSGTDFTLTINSLQPEDFATYYCQQSYSMPRTFGGGTKLEIK	0.9%
unnamed (protein) chain 1: QVQLVQSGAEVKKPGASVKVSCKVSGYTLTELSIHWVRQAPGKGLEWMGGFDPEENEIVYAQRFQGRVTMTEDTSTDTAYMELSSLRSEDTAVYYCAIVGSFSPLTLGLWGQGTMVTVSS chain 2: QSVLTQPPSVSGAPGQRVTISCTGSGSNIGAPYDVSWYQQLPGTAPKLLIYHNNKRPSGVPDRFSGSKSGTSASLAITGLQAEDEADYYCATVEAGLSGSVFGGGTKLTVL	3.1%
unnamed (protein) chain 1: QVTLRESGPALVKPTQTLTLTCTVSGFSLTSYSVHWVRQPPGKGLEWLGVIWASGGTDYNSALMSRLSISKDTSRNQVVLTMTNMDPVDTATYYCARDPPSSLLRLDYWGRGTPVTVSS chain 2: DIVMTQSPDSLAVSLGERATINCKSSQSLLNSGNQKNYLAWYQQKPGQPPKLLIYGASTRESGVPDRFSGSGSGTDFTLTISSLQAEDVAVYYCQNVHSFPFTFGGGTKLEIK	13%
unnamed (protein) chain 1: EVQLVESGGGLVKPGGSLKLSCAASGFAFSIYDMSWVRQTPEKCLEWVAYISSGGGTTYYPDTVKGRFTISRDNAKNTLYLQMSSLKSEDTAMYYCARHSGYGTHWGVLFAYWGQGTLVTVSA chain 2: DIQMTQTTSSLSASLGDRVTISCRASQDISNYLNWYQQKPDGTVKLLIYYTSILHSGVPSRFSGSGSGTDYSLTISNLEQEDFATYFCQQGNTLPWTFGCGTKLEI	59%
unnamed (protein) chain 1: QVQLQESGPGLVKPSQTLSLTCTVSGGSISSGDYYWSWIRQPPGKGLEWIGYIYYSGSTDYNPSLKSRVTMSVDTSKNQFSLKVNSVTAADTAVYYCARVSIFGVGTFDYWGQGTLVTVSS chain 2: EIVMTQSPATLSLSPGERATLSCRASQSVSSYLAWYQQKPGQAPRLLIYDASNRATGIPARFSGSGSGTDFTLTISSLEPEDFAVYYCHQYGSTPLTFGGGTKAEIK	4.1%
unnamed (protein) chain 1: QVQLVESGGGVVQPGRSLRLDCKASGITFSNSGMHWVRQAPGKGLEWVAVIWYDGSKRYYADSVKGRFTISRDNSKNTLFLQMNSLRAEDTAVYYCATNDDYWGQGTLVTVSS chain 2: EIVLTQSPATLSLSPGERATLSCRASQSVSSYLAWYQQKPGQAPRLLIYDASNRATGIPARFSGSGSGTDFTLTISSLEPEDFAVYYCQQSSNWPRTFGQGTKVEIK	7.7%
unnamed (protein) chain 1: QVQLVQSGAEVKKPGASVKVSCKASGFNIKDTYIHWVRQAPGQRLEWMGRIDPANGYTKYDPKFQGRVTITADTSASTAYMELSSLRSEDTAVYYCAREGYYGNYGVYAMDYWGQGTLVTVSS chain 2: DIQMTQSPSSLSASVGDRVTITCKTSQDINKYMAWYQQTPGKAPRLLIHYTSALQPGIPSRFSGSGSGRDYTFTISSLQPEDIATYYCLQYDNLWTFGQGTKVEIK	9%
unnamed (protein) chain 1: EVQLVQSGAEVKKPGESLKISCKGSGYIFTNYWIAWVRQMPGKGLESMGIIYPGDSDIRYSPSFQGQVTISADKSITTAYLQWSSLKASDTAMYYCARHDIEGFDYWGRGTLVTVSS chain 2: EIVLTQSPGTLSLSPGERATLSCRASQSVSSSFFAWYQQKPGQAPRLLIYGASSRATGIPDRLSGSGSGTDFTLTITRLEPEDFAVYYCQQYDSSAITFGQGTRLEIK	3.3%
unnamed (protein) chain 1: QVQLQQPGAELVEPGGSVKLSCKASGYTFTSHWMHWVKQRPGQGLEWIGEINPSSGRNNYNEKFKSKATLTVDKSSSTAYMQFSSLTSEDSAVYYCVRYYGYDEAMDYWGQGTSVTVSS chain 2: DIVMTQAAFSNPVTLGTSASISCRSSKSLLHSNGITYLYWYLQKPGQSPQLLIYQMSNLASGVPDRFSSSGSGTDFTLRISRVEAEDVGVYYCAQNLELPYTFGGGTKLEIK	0%
unnamed (protein) chain 1: QVQLVQSGGGLVQAGGSLRLSCAASGGTFATSPMGWLRQAPGKGTEFVAAISPSGGDRIYADSVKGRFTISRDNAGYFIYLQMNSLKPEDTAVYYCAVRRRFDGTSYYTGDYDSWGQGTLVTVSS chain 2: EIVLTQSPGTLSLSPGERATLSCRASQSVSSSYLAWYQQKPGQAPRLLIYDASSRATGIPDRFSGSGSGTDFTLTISRLEPEDFAVYYCQQYSYSPVTFGQGTKVEIK	0%
